Usually IC50 stands for the concentration needed to halve the response being measured.

Like-named read-outs stand apart in the source and are kept apart here. Square brackets hold non-standard residues; d marks the D form. Ends that are not written are not given here. Peptide text beside a SMILES is read from it. * marks the point of attachment. hArg = N=C(N)NCCCC[C@H](N)C(=O)O; Orn = NCCC[C@H](N)C(=O)O; Hexanoyl = CCCCCC(=O)*; Aib = CC(C)(N)C(=O)O

The text below walks through data of patent US20080194482A1, “Selective Apac2 Receptor Peptide Agonists” (priority 2005, published 2008).

The target in one series is T1, human PAC1 (Homo sapiens, UniProt P41586).
T1 construct: expressed in transfected cells
T1 sequence (P41586 21-468): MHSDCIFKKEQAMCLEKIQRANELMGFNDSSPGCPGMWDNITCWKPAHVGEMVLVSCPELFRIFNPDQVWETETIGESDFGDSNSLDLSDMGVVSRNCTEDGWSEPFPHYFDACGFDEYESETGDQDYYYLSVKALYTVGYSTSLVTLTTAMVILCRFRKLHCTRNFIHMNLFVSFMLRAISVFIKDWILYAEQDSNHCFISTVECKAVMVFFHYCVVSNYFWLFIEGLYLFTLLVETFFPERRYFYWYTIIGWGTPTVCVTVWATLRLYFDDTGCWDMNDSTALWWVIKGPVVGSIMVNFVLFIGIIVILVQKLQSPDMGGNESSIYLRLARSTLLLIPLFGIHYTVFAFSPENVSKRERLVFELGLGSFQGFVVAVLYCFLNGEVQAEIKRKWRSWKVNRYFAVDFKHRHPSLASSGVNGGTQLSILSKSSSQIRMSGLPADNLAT
The series can be described thus: Filter binding assay, 125I-labeled PACAP-27 tracer, PAC1 membranes. The following applies: read-out: Human PAC1 Receptor Binding (IC50; nM).

In another series the target is T2, human VPAC1 (Homo sapiens, UniProt P32241).
T2 construct: expressed in transfected cells
T2 sequence (P32241 31-457): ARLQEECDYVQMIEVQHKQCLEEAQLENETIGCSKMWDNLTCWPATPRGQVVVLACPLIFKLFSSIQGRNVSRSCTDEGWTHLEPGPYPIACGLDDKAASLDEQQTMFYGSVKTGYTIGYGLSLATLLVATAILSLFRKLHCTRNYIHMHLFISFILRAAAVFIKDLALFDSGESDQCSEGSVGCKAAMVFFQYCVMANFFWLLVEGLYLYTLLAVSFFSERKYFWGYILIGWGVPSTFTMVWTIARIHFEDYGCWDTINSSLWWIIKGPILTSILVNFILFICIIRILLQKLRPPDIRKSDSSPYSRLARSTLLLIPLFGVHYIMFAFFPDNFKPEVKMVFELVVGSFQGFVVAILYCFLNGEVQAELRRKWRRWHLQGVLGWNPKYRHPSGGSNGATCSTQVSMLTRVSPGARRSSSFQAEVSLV
The series can be described thus: Filter binding assay, 125I-labeled VIP tracer, VPAC1 membranes. Conditions: read-out: Human VPAC1 Receptor Binding (IC50; nM).

Series [1] can be described thus: Rat serum stability (activity remaining, CHO-VPAC2 DiscoveRx read-out). It is filed as in vitro ADME. The procedure:
The rat serum is stored at 4° C. until use and is used within two weeks. […] The aliquot is stored with aprotinin at 4° C. The aliquot is stored without aprotinin at 37° C. The aliquots are incubated overnight. […] The plate(s) are washed with cells twice in incubation buffer. The plates are allowed to hold 50 μL incubation media per well for 15 minutes. 50 μL solution per well is transferred to the cells from the plate prepared with 11 serial 5× dilutions of peptide for the 4° C. and 37° C. aliquot for each peptide studied, using the maximal concentrations that are indicated by the primary screen, in duplicate. This step dilutes the peptide concentration by a factor of two. The cells are incubated at room temperature for 30 minutes. […] The cells are incubated on the shaker (300 rpm) for 1 hour. Normal procedure with the DiscoveRx kit is followed. cAMP standards are included in column 12. EC50 values are determined from the cAMP assay data.

Series [2] deals with T3, human VPAC2 receptor (human, UniProt P41587 24-438).
T3 construct: whole, on cells; Stably expressed in a CHO-S cell line
T3 sequence (looked up): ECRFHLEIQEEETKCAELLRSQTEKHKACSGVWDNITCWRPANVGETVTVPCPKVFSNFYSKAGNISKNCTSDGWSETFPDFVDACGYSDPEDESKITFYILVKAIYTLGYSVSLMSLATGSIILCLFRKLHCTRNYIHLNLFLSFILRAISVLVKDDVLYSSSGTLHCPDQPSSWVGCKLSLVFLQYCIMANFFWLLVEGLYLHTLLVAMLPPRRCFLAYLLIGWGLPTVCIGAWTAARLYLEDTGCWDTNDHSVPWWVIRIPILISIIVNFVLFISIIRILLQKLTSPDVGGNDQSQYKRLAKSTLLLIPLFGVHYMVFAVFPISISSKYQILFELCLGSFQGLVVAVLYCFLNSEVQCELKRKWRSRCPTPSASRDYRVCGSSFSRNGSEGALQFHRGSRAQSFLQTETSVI
The series can be described thus: filter binding, human VPAC2 membranes, competition with 125I-VIP.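 Note: assay plate incubated 1 h with shaking, then filtered, with filter-retained counts measured after adding scintillant.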
Procedure: The filled plate is incubated for 1 hour with shaking.
The transfer from assay plate to filter plate is conducted. The blocking buffer is aspirated by vacuum filtration and washed two times with flush buffer. 90 μL is transferred from the assay plate to the filter plate. The 90 μL transferred from assay plate is aspirated and washed three times with 200 μL flush buffer. The plastic support is removed. It is dried for 1 hour at 60° C. 30 μL Microscint is added. The count is performed.

The target in series [3] is T3, human VPAC2 receptor. The series is described as follows: cell-based or functional assay.
The next series has as its target T4, rat VPAC2 receptor (rat, UniProt P35000 23-437).
T4 sequence (looked up): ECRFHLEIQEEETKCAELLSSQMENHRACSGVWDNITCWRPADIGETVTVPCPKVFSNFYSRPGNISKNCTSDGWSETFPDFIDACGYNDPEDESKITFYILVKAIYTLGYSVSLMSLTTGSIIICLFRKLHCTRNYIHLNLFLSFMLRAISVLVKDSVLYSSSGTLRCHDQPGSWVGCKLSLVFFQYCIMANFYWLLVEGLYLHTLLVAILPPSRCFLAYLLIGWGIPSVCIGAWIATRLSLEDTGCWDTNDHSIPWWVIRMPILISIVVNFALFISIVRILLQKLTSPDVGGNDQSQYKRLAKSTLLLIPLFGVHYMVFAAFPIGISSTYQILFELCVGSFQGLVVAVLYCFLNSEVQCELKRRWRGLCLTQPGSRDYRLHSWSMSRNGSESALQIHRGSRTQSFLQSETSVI
The series is described as follows: cell-based or functional assay.

Another series has as its target T5, rat VPAC1 receptor (rat, UniProt P30083 31-459).
T5 sequence (looked up): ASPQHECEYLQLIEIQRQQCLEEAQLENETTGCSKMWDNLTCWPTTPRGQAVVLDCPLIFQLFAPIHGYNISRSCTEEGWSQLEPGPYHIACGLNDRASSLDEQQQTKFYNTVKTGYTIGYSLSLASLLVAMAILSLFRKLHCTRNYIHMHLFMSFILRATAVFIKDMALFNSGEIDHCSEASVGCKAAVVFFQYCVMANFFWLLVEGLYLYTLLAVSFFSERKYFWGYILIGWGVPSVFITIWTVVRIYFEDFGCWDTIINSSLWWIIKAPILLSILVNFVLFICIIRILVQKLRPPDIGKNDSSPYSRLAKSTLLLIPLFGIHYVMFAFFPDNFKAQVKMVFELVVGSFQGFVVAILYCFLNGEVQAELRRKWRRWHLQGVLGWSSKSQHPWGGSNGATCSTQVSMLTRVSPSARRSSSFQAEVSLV
The series is described as follows: cell-based or functional assay.

Regarding “Hexanoyl-HSDAVFTDNYT[hArg]LR[Aib]QVAA[Aib]KYLQSIKNKRYGGPSSGAPPPS [Agonist P343]”, the results for the IC50 at human PAC1 and on human VPAC1 were greater than 25000 nM and greater than 3000 nM, respectively. In series [1] (10 μM peptide in rat serum, overnight at 37° C. vs 4° C. with aprotinin, estimated by EC50, 4C/EC50, 37C), the “Rat Serum Stability (estimated purity in % after overnight incub.)” value was 34.46%.

As for `CCCCCC(=O)N[C@@H](Cc1c[nH]cn1)C(=O)N[C@@H](CO)C(=O)N[C@@H](CC(=O)O)C(=O)N[C@@H](C)C(=O)N[C@H](C(=O)N[C@@H](Cc1ccccc1)C(=O)N[C@H](C(=O)N[C@@H](CC(=O)O)C(=O)N[C@@H](CC(N)=O)C(=O)N[C@@H](Cc1ccc(O)cc1)C(=O)N[C@H](C(=O)N[C@@H](CCCN)C(=O)N[C@@H](CC(C)C)C(=O)N[C@@H](CCCNC(=N)N)C(=O)NC(C)(C)C(=O)N[C@@H](CCC(N)=O)C(=O)N[C@H](C(=O)N[C@@H](C)C(=O)N[C@@H](C)C(=O)NC(C)(C)C(=O)N[C@@H](CCCCN)C(=O)N[C@@H](Cc1ccc(O)cc1)C(=O)N[C@@H](CC(C)C)C(=O)N[C@@H](CCC(N)=O)C(=O)N[C@@H](CO)C(=O)N[C@@H](CO)C(=O)N[C@@H](CCCN)C(=O)N[C@@H](CC(N)=O)C(=O)N[C@@H](CCCN)C(=O)NCC(=O)NCC(=O)N1CCC[C@H]1C(=O)N[C@@H](CO)C(=O)N[C@@H](CO)C(=O)NCC(=O)N[C@@H](C)C(=O)N1CCC[C@H]1C(=O)N1CCC[C@H]1C(=O)N1CCC[C@H]1C(=O)N[C@@H](CO)C(=O)O)C(C)C)[C@@H](C)O)[C@@H](C)O)C(C)C` [Agonist P382] (Hexanoyl-HSDAVFTDNYT[Orn]LR[Aib]QVAA[Aib]KYLQSS[Orn]N[Orn]GGPSSGAPPPS-OH; C-terminus assumed), the half-inhibitory concentration (IC50) at human PAC1 is greater than 25000 nM; at human VPAC1 it was greater than 3000 nM. Besides, the “Rat Serum Stability (estimated purity in % after overnight incub.)” value in series [1] is on record as 92.34%.

`CCCCCC(=O)N[C@@H](Cc1c[nH]cn1)C(=O)N[C@@H](CO)C(=O)N[C@@H](CC(=O)O)C(=O)N[C@@H](C)C(=O)N[C@H](C(=O)N[C@@H](Cc1ccccc1)C(=O)N[C@H](C(=O)N[C@@H](CC(=O)O)C(=O)N[C@@H](CC(N)=O)C(=O)N[C@@H](Cc1ccc(OC)cc1)C(=O)N[C@H](C(=O)N[C@@H](CCCNC(=N)N)C(=O)N[C@@H](CC(C)C)C(=O)N[C@@H](CCCNC(=N)N)C(=O)NC(C)(C)C(=O)N[C@@H](CCC(N)=O)C(=O)N[C@H](C(=O)N[C@@H](C)C(=O)N[C@@H](C)C(=O)NC(C)(C)C(=O)N[C@@H](CCCCN)C(=O)N[C@@H](Cc1ccc(O)cc1)C(=O)N[C@@H](CC(C)C)C(=O)N[C@@H](CCC(N)=O)C(=O)N[C@@H](CO)C(=O)N[C@H](C(=O)N[C@@H](CCCCN)C(=O)N[C@@H](CC(N)=O)C(=O)N[C@@H](CCCCN)C(=O)N[C@@H](CCCNC(=N)N)C(=O)N[C@@H](Cc1ccc(O)cc1)C(=O)NCC(=O)NCC(=O)N1CCC[C@H]1C(=O)N[C@@H](CO)C(=O)N[C@@H](CO)C(=O)NCC(=O)N[C@@H](C)C(=O)N1CCC[C@H]1C(=O)N1CCC[C@H]1C(=O)N1CCC[C@H]1C(=O)N[C@@H](CO)C(=O)O)[C@@H](C)CC)C(C)C)[C@@H](C)O)[C@@H](C)O)C(C)C` [Agonist P358]: the “Rat Serum Stability (estimated purity in % after overnight incub.)” value in series [1] is 13.43%.

B1: VPAC2 receptor peptide agonist P394 (peptide)
peptide: HSDAVFTDQYTXLRXQLAAXXYLQSIXXGGPSSGAPPPS
modifications: N-terminal hexanoyl (C6); Tyr(OMe) at 10; Orn at 12, 21, 27 and 28; Aib at 15 and 20
In the series with human VPAC2 receptor [2], B1 yielded an IC50 of 0.41 nM. Also, the “Human VPAC2 Receptor: Alpha Screen (EC50; nM), cAMP generation” value (“Human VPAC2 Receptor: Alpha Screen” for short) with human VPAC2 receptor [3] was 0.11 nM. Moreover, the “Rat VPAC2 Receptor: DiscoveRx (EC50; nM), cAMP generation” value (“Rat VPAC2 Receptor: DiscoveRx” for short) with rat VPAC2 receptor was 0.03 nM. In the series with rat VPAC1 receptor, the “Rat VPAC1 Receptor: DiscoveRx (EC50; nM), cAMP generation” value (“Rat VPAC1 Receptor: DiscoveRx” below) was 0.48 nM.

B2: VPAC2 receptor peptide agonist P391 (peptide)
peptide: Hexanoyl-HSDAVFTDNYT[Orn]SR[Aib]QVAA[Aib]KYLQSI[Orn]N[Orn]GGPSSGAPPPS
Regarding B2, the IC50 in the series with human VPAC2 receptor [2] came out at 3.67 nM. Also, the “Human VPAC2 Receptor: Alpha Screen” value with human VPAC2 receptor [3] came out at 0.48 nM. Besides, the “Rat VPAC2 Receptor: DiscoveRx” value with rat VPAC2 receptor came out at 0.5 nM. Further, the “Rat VPAC1 Receptor: DiscoveRx” value in the series with rat VPAC1 receptor was 9.09 nM.

B3: VPAC2 receptor peptide agonist P368 (peptide)
peptide: Hexanoyl-HSDAVFTDNYTQLR[Aib]QVAA[Aib]KYLQSI[Orn]N[Orn]GGPSSGAPPPS
On to B3, for which the concentration for half-maximal inhibition (IC50) in the series with human VPAC2 receptor [2] was found to be 28.6 nM. Further, the “Human VPAC2 Receptor: Alpha Screen” value with human VPAC2 receptor [3] was determined as 1.09 nM. Also, the “Rat VPAC2 Receptor: DiscoveRx” value with rat VPAC2 receptor was 1.33 nM. In addition, the “Rat VPAC1 Receptor: DiscoveRx” value with rat VPAC1 receptor came out at 20.9 nM.

B4: VPAC2 receptor peptide agonist P369 (peptide)
peptide: Hexanoyl-HSDAVFTDNYTFLR[Aib]QVAA[Aib]KYLQSI[Orn]N[Orn]GGPSSGAPPPS
In the case of B4, the half-inhibitory concentration (IC50) in the series with human VPAC2 receptor [2] was 37.3 nM. The “Human VPAC2 Receptor: Alpha Screen” value with human VPAC2 receptor [3] is 10.5 nM. Besides, the “Rat VPAC2 Receptor: DiscoveRx” value with rat VPAC2 receptor turned out to be 8.09 nM. In addition, in the series with rat VPAC1 receptor, the “Rat VPAC1 Receptor: DiscoveRx” value turned out to be 130 nM.

B5: VPAC2 receptor peptide agonist P370 (peptide)
peptide: Hexanoyl-HSDAVFTDNYTRLLAKLALQKYLQSI[Orn]N[Orn]GGPSSGAPPPS
With B5, the concentration for half-maximal inhibition (IC50) in the series with human VPAC2 receptor [2] worked out at 0.8 nM. The “Human VPAC2 Receptor: Alpha Screen” value with human VPAC2 receptor [3] was 0.23 nM. Also, the “Rat VPAC2 Receptor: DiscoveRx” value in the series with rat VPAC2 receptor turned out to be 0.05 nM. Also, in the series with rat VPAC1 receptor, the “Rat VPAC1 Receptor: DiscoveRx” value was determined as 0.05 nM.
